Measurements as given in PMC7949115, “Poly(ADP-ribose) polymerase 1 regulates mitochondrial DNA repair in an NAD-dependent manner”.

How the values were obtained:
[1] = biological target: T1, PARP1 (PARP-1);Pol gamma A (catalytic subunit);Pol gamma B deltaI4 (accessory subunit) (Homo sapiens?;Homo sapiens?;Homo sapiens?) (UniProt P09874+P54098+Q9UHN1); assay: EMSA; conditions: apparent; PARP1 titrated into Pol gamma (0.5 uM)-DNA (0.75 uM); no NAD+; Buffer RX: 25 mM Hepes pH 7.5, 140 mM KCl, 5 mM MgCl2, 5% glycerol, 1 mM BME; ITC at 25 C; EMSA incubated on ice then room temperature, 4-20% native PAGE in …
[2] = biological target: T1, PARP1 (PARP-1);Pol gamma A (catalytic subunit);Pol gamma B deltaI4 (accessory subunit) (Homo sapiens?;Homo sapiens?;Homo sapiens?); assay: ITC; conditions: Buffer RX: 25 mM Hepes pH 7.5, 140 mM KCl, 5 mM MgCl2, 5% glycerol, 1 mM BME; ITC at 25 C; EMSA incubated on ice then room temperature, 4-20% native PAGE in …
[3] = biological target: mitochondrial DNA polymerase (Pol γ) holoenzyme, heterotrimer of Pol γA and dimeric Pol γB ΔI4 (UniProt P54098); assay: ITC; PARP-1 titrated into Pol γ (5 μM) to a final 10 μM, without DNA; 25 °C; Buffer RX (25 mM Hepes pH 7.5, 140 mM KCl, 5 mM MgCl2, 5% glycerol, 1 mM BME)
[4] = biological target: PARP1 (PARP-1) (UniProt P09874 1-1014); assay: ITC; 25 C, 5 mM Mg2+, no NAD+; dH -58.4 kcal/mol; Buffer RX: 25 mM Hepes pH 7.5, 140 mM KCl, 5 mM MgCl2, 5% glycerol, 1 mM BME; ITC at 25 C; EMSA incubated on ice then room temperature, 4-20% native PAGE in Tris-glycine at 0 C; conditions: protein: recombinant; tags: His (Ni-NTA purified); self-annealed dumbbell, two hairpins, 3-nt gap
Sequence of PARP1 (PARP-1) (P09874 whole entry): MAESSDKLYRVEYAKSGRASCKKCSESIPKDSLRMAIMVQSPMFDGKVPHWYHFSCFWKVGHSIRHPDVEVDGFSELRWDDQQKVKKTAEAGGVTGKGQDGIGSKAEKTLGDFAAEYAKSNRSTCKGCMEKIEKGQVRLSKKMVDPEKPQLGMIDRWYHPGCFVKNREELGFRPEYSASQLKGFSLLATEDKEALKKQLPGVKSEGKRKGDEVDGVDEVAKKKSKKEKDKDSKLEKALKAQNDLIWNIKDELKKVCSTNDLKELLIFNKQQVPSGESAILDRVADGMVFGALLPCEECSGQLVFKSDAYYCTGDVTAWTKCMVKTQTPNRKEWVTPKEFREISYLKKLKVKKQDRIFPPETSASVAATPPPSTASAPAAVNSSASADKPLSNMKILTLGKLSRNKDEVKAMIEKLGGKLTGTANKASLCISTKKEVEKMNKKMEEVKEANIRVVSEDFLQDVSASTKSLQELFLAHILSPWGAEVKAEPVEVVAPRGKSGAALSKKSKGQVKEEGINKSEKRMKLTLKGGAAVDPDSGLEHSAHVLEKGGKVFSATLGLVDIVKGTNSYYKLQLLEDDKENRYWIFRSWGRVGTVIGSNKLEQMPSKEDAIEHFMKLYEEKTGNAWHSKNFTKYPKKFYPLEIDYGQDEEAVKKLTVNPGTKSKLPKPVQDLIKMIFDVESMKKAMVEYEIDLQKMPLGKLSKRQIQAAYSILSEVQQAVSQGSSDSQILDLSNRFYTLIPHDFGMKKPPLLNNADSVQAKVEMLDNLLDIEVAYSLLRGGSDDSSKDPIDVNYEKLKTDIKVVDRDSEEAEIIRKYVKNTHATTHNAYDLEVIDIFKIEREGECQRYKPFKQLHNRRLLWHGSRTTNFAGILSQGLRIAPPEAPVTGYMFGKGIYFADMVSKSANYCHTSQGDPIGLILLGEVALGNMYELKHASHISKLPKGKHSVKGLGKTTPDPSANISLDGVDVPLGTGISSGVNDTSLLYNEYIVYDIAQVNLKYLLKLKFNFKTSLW

T1 sequence (P09874 whole entry, stated change not applied, chain 1 of 3): as the sequence (P09874 whole entry) above
T1 sequence (P54098 30-1239, stated change not applied, chain 2 of 3): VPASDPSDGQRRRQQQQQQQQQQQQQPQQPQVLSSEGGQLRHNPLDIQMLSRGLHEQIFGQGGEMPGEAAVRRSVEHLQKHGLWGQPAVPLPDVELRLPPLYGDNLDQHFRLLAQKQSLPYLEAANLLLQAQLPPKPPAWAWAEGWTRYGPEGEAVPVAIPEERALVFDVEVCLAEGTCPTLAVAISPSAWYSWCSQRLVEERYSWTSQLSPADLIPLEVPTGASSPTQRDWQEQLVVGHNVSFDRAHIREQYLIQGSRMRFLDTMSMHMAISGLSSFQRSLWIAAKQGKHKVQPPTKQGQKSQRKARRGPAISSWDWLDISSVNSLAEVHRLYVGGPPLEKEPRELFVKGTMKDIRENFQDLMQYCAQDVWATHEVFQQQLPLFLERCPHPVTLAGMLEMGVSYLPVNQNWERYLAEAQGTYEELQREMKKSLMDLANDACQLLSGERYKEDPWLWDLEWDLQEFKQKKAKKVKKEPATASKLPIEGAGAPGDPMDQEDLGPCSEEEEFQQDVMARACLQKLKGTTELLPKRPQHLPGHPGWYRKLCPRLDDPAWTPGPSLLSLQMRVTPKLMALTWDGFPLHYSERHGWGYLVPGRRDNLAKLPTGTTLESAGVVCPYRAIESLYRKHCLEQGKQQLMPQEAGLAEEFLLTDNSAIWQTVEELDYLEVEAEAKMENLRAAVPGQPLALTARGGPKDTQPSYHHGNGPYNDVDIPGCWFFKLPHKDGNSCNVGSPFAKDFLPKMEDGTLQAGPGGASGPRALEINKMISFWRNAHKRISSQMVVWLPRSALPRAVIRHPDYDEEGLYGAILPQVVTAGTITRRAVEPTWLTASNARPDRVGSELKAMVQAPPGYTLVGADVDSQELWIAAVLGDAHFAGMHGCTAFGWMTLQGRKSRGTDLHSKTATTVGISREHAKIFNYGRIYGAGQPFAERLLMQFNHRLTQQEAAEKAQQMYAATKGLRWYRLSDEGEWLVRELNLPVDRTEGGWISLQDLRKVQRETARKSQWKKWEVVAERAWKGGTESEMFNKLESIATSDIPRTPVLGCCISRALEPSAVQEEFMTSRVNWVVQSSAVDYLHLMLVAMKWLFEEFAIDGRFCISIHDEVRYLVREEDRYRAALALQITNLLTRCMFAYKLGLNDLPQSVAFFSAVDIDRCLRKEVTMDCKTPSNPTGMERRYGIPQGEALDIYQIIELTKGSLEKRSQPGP
T1 sequence (Q9UHN1 whole entry, stated change not applied, chain 3 of 3): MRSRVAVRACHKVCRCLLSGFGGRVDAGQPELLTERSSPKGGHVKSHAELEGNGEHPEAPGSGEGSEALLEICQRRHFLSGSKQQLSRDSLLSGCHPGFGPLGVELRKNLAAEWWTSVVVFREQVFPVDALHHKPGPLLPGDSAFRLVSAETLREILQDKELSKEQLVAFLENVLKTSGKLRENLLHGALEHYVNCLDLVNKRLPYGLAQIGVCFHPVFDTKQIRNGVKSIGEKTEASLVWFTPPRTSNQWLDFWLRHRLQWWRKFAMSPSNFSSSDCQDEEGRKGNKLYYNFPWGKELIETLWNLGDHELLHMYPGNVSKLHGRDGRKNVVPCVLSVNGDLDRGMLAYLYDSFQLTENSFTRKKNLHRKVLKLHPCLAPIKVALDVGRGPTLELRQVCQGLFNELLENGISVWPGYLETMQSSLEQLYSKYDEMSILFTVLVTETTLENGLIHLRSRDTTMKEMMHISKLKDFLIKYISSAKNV

CTTTTCTGGTGAAAAGCTCGTCGGCAGCGCTTGAGCAGCGGCAGCTGGTGCTGCCGCTGCTCAAGCGCTGCCGAC [d3ntgap (75-nt dumbbell with 3-nt gap)]
Kd [1]: 600 nM
Kd [2]: 111 nM

Poly(ADP-ribose) polymerase 1 (from UniProt P09874 1-1014) (enzyme)
Kd [3]: > 10000 nM

B1: d3ntgap (75-nt dumbbell with 3-nt gap) (structured_DNA)
DNA: CTTTTCTGGTGAAAAGCTCGTCGGCAGCGCTTGAGCAGCGGCAGCTGGTGCTGCCGCTGCTCAAGCGCTGCCGAC
Kd [4]: 36.4 nM
